Among the data in publication PMC6783550, “Molecular mechanism of azoxy bond formation for azoxymycins biosynthesis” (Nature Communications, 2019) are stoichiometry N, Km and kcat values, retold here.

The target of series [1] is AzoC (Streptomyces chattanoogensis). Put plainly: native gel or EMSA + SEC; Native-PAGE and size-exclusion chromatography of purified recombinant AzoC; SEC on Sephacryl S-300, AKTA Purifier, 4 °C, 20 mM Tris pH 8.0, 250 mM NaCl, 1 mL/min, markers IgG (150 kDa) and BSA (67 kDa); self-association, homodimer. A general note: In EMSA bound probe runs differently from free probe, usually more slowly.

In a further series the test system is Nc1ccc(/C=C/C(=O)O)cc1. Put plainly: purified protein. To be noted: 30 °C, general assay: 1 mM NADH, 10 μM PMS, O2, 20 mM HEPES pH 7.

In general, stoichiometry N refers to a count of units in the complex or per binding partner. With AzoC (enzyme), in series [1], the stoichiometry N came out at 2. Broadly, the Km is the substrate concentration at which the rate is half of its maximum. In general, kcat refers to the number of substrate molecules converted per active site and unit of time at saturation. In the case of AzoC (Streptomyces chattanoogensis), in the series with Nc1ccc(/C=C/C(=O)O)cc1, the Km came out at 4.24 ± 0.9 µM and the kcat came out at 0.7005 ± 0.0698 s⁻¹.
